Measured values published in the DeepSol protein solubility set.

Test: soluble on expression in E. coli; label from the status in PepcDB or PDB records

Sequence	soluble on expression in E. coli
MKIFSRLGHVLLICSSLIIAIPAHSADSSTTTKAGVKKTVKKQELSANSALVIDLKTNEIIYSNNPDAVKPIASVTKLMTAIVTLDAKLPMDAKLPITIKDAKEMKGVHSRVKIGSEISRKDMLLLTLMSSENRAAASLAHHYPGGYKAFIKAMNAKAKALGMKNTRFVEPTGLSAKNVSTARDLVVLLKASKKYPLLGKLSATDKKTVTFSKPRYTLDFRNTNRLVHNDNWKIDLTKTGFTNAAGHCLVMRTQMGRRQVAFVVLDTKGKLSPVGDANRLRTWIETGKVTPLSSEAKQYKKQRSQEQIAKISDYKS	not soluble
MKIEAISTTIVDVPTRRPLQMSFTTVHKQSYVIVQVKAGGLVGIGEGGSVGGPTWGSESAETIKVIIDNYLAPLLVGKDASNLSQARVLMDRAVTGNLSAKAAIDIALHDLKARALNLSIADLIGGTMRTSIPIAWTLASGDTARDIDSALEMIETRRHNRFKVKLGARTPAQDLEHIRSIVKAVGDRASVRVDVNQGWDEQTASIWIPRLEEAGVELVEQPVPRANFGALRRLTEQNGVAILADESLSSLSSAFELARDHAVDAFSLKLCNMGGIANTLKVAAVAEAAGISSYGGTMLDSTVGTAAALHVYATLPSLPYGCELIGPWVLGDRLTQQDLEIKDFEVHLPLGSGLGVDLDHDKVRHYTRAA	soluble
MSFALLMASGGLDSTTVAYWLTERGVQFIPVFFDYGQHCVETEWETLKEVLPASAAHPERNDISDLFRGSKSRLITEADLWNEEVKDEDLYVPYRTLLFYSAAAARAQTLGAFEVYTGFINSNRAKEIDCTAEFMNKLDALTDSVGPVRFLSPFRFWSKSEVAKESIRLGVPIGRTFSCQAASLMPCGACPNCVERLAALRETGLLA	not soluble
MKNKKTLTKVALTTGLALTAVAPYGVGHAEETDQLQVQIQEESFRSGELTQPSQKAPENVVKDALKEKTEQALSPKQVNGETGVDYKVLQKRGSYDGTTLVRIQQTYEGKEVYGHQLTAHVDNSGVIKSVSGDSAQNLKQEELKKPINLSKDEATQYIYTKYGNDINFISEPEVKEVIFVDENNGQASNAYQVTFEAATPNYISGTYLINAQNGDMLKNMVQESNLKASEKLVGALKKSKKSSLTSLTGTGKDDLGISRSFGISKQSNGKYALADYTRGQGIETYDVNYRDITKEESYYPGTLATSTSTTFNDPKAVSAHYLATKVFDFYKDKYNRNSFDNQGQKVVSVVHAWDSGDTNDPKNWQNALSANNGSMLVYGDPIVKAYDVAGHEFTHAVTSSESNLEYYGESGAINEALSDIMGTSIEKYVNNGSFNWTMGEQTGSVFRDMENPTSVPSSLGVPYPDDYSEFNDFNGWDQGGVHFNSSIINKVAYLIAKGGTHNGVTVKGIGEDKMFDIFYYANTDELNMTSNFKELRSACIRVATNKYGANSAEVQAVQKAFDAAKIK	not soluble
MGSDKIHHHHHHLVEKRRVMSNLETNQGRLAAIETFAERCPDCGSLLYRPKGLSKVTGKKMAGVCMNCGYKQPPTEPKNVTPDMEKEARKNRTVGYYLAYSVFSTDAIIAKDFNNFHTDGSLGQQQLKLFAVGLSNKICRNEVVHALIIGDTGVGKSHIANGILIDTQAKTGYRKTCLFIDWNALMQRLKSGMSANAQDVRMKNEKIMHEIGKADVVVIDDLGSERGSDFDRQTADDVFRMREDKATIVTTNLHGQDLNKRYGERTMSRMAKHGQGNSFGVKGILDQRKEALP	not soluble
MGSDKIHHHHHHMARINLEQLSTFLAVVRLGGVRRAATSLNLTQPAVTARIKNLEDNLDCELFDRTQSGMKLTKRGELLLGHAEKYEHLTQLVERDLVDPAGVEGRLRLGASETIAQCWLPDLVTRLHQLFPKLEIELVVDISANLRAGLMDRELDLAILLGPLSEFSVNNVELPDFELAWYAAADTSSEAIAASYLSRPVLTYPRNTRPYRELKEKLFEQAGPNFSLFPSSSLSACFRLVEADLGVAVLPRALGREYVLAGRIREFDPGWVPAPLRFTICYMGEPKSQLIETAAHMAREVAVDYHGDKNNL	not soluble
MAHHHHHHMSATPKQPSTATTSISSDEKWDHSLETLIRKSTIGFASGILPGLLLARSPAARSAIIALCTGVGSGIAYGEARYLFDHDIMFDKRHLIQVQVVGGSSSQQSGAQKSME	not soluble
MYSVLIPVDRDEARASNQASYVSQLPDATDTVEATVLYVVPPDEFADAAEVAFDDIDAAVQAANQLEAAGVSVTRMVDDGGVAQQIVRTATELDSDEIVVGGRKRSGVSKVLLGSTAQDVLLSAERPVTITGESVVL	not soluble
MFPRKELLKDGSLLLIREASIWDARRIVEYLKEVTSETDFLITRPDEVYDVSTERNYIRMYRSNPGKLMIVGEINREIVSLLTFTGFGRKRTKHVGEIGISVKKRYWNIGIGTRMITSAIEWARRNGFIRIQLEVLKSNERAISLYRKLGFELEGIKRKAVRRDDGSFEDVLVMALLLD	soluble
MSLKGNLDVIPQPQEIVLARDTTPFIIDRSTTIVYPATNEKMHRTADFLATFIKEMTGTEVHVSDKEKSSNAIILAVDSTMGHPEGYKLQITPEKVLLTGGSEAGVFYGIQTIHKALPILKDGKVAAALPAGTVTDFPRFRYRGFMIDVGRHFFPVSYLKQMIDLMALHNINYFHWHLTEDQGWRIEIKKYPKLTEIGSKRDSTIIDWETKKFDGKPHSGFYTQDEAREIVRYAADRFITVVPEIDLPGHTTAALASYPELGCTGGPYKVLCSFGVFPDVLCAGNDQTLQFTKDVLDEIMDIFPSEYIHIGGDECPKSRWEKCPKCQAKIKELGIKALPKHSKENQLQTYFMSELEKEINAHGRRMLGWDEVLEGGLTPNSTIMSWRGIQGGIEAARQHHDVIMTPIQRLYFSNPRINKMTGFEWMNRVYNFEPVPAELTDAEKKFVIGTQGCIWTEWTADSTKMEWQILPRMAALSEIQWTLPEHKNFERFMERLPEMLKIYSSLDYGYREDVFAADTLKTHKEGHHHHHH	soluble
MLYASLCRTPVFGILAQILCDIYSSIGCALSSFRSPLGPPFDFLFDTCSCQTARCFNKSKGVLITGSKLKAFRNPQPSWGFSVHKQVAALWQQLLSTGNVTRETDFFQQGGDSLLATRLTGQLHQAGYEAQLSDLFNHPRLADFAATLRKTDVPVEQPFVHSPEDRYQPFALTDVQQAYLVGRQPGFALGGVGSHFFVEFEIADLDLTRLETVWNRLIARHDMLRAVVRDGQQQVLEQTPRWVIPAHILHTPEEALQVREKLAHQVLNPEVWPVFDLQVGYVDGMPARLWLCLDNLLLDGLSMQILLAELEHGYQYPQQLPPPLPVTYRDYLQQPAIQSLNADSLAWWQAQLDDIPPAPALPLRCMPQDVETPRFARLNGALDSTRWHRLKKRAADAHLTPSAVLLSVWSTVLSAWSAQPEFTLNLTLFDRRPLHPQINQILGDFTSLMLLSWHPGESWLHSAQSLQQRLSQNLNHRDVSAIRVMRQLAQRQNVPAVPMPVVFTSALGFEQDNFLARRNLLKPVWGISQTPQVWLDHQVYESEGELRFNWDFVAALFPAGQVERQFEQYCTLLNRMTEDENSWHLPLAALVPPVKQAEQGTERTSRVCPEHSQSHIAADESTVSLICDAFREVVGESVTPAQNFFEAGATSLNLVQLHVLLQRHEFSTLTLLDLFTHPSPAALAAYLTSVATVEKTKRSRPVRRRQRRI	not soluble
MSLSQIVAEVDGYKVTKEELDTLFHVFWKRITHLSSAKPTQEDKRIFLIDYVADLLILKEAKKMGIEVSEKEINDFIRKYVGRKIKEKSVINAVKAEILVEKLVDKLMKEQELNPSEDILRAYYEFYKREFYRPSSVKLLGIYVKSKKEAERISQILKQGEVPSTEDVKVSKPLWYSIPTLPKYIRRNFRTLSVGEVSKPIKINDGYLVFKILDKKPAGFIPFERAKSLVKKMYLKEKRKEVFKKWLSEVLKKYQVRSTGKEGHHHHHH	not soluble
MGSDKIHHHHHHMTLLLKENDVINLLDYKQIYGALVNAFLLFENKFAINLERSRISFHGTTLTFQAAGMENYIGYKTFISGNHLTFLYDTSGNLLSIIESDRLSQARTAVLSILATDYVYGDFSSLGVIGLGKYGLAIVEIANQLKKGIKINVFTPSQQRMEKALSILRGEGIDVSPKDSIKRVCEESEVVTTITKAKDPFLKLEYVNNKRIHINAMGSNIPEKIEIFPEVIKASNLIVVEELEHEFKRIRRVSHRKRMGMLDMSKITLLSWILSRKINVQKEGITIFKSVGIGLEDLAVGKLIYEKALSKGLGTEIEVKGVWYRESEKK	not soluble
GGNSKSRNDRTETVDKEVIKAPEFDADSAYQYIQVQADFGPRVPNTQAHKECGEYLAGQLEKFGAKVYNQYADLIAYDGTILKSRNIIGAYKPESKKRILLCAHWDSRPYADNDPDPKNHHTPILGVNDGASGVGVLLEIARQIQKEQPALGIDIVFFDSEDYGIPEFYDGKYKQDTWCLGSQYWARTPHVQNYNARYGILLDMVGGKDATFYYEGYSARTARSEMKKIWKKAHELGYGKYFVKEDGGETVDDHIYVNKLARIPCVDIINYDAGNPQSSFGSFWHTVNDTMENIDRNTLKAVGQTVMDVIYNEK	soluble
MAEKRTVRPFAGTERRAKGWIQEAALRMLNNNLHPDVAERPDELIVYGGIGKAARNWECYEAIVDTLLRLENDETLLIQSGKPVAVFRTHPDAPRVLIANSNLVPAWATWDHFHELDKKGLIMYGQMTAGSWIYIGSQGIVQGTYETFAEVARQHFGGTLAGTITLTAGLGGMGGAQPLAVTMNGGVCLAIEVDPARIQRRIDTNYLDTMTDSLDAALEMAKQAKEEKKALSIGLVGNAAEVLPRLVETGFVPDVLTDQTSAHDPLNGYIPAGLTLDEAAELRARDPKQYIARAKQSIAAHVRAMLAMQKQGAVTFDYGNNIRQVAKDEGVDDAFSFPGFVPAYIRPLFCEGKGPFRWVALSGDPEDIYKTDEVILREFSDNERLCHWIRMAQKRIKFQGLPARICWLGYGERAKFGKIINDMVAKGELKAPIVIGRDHLDSGSVASPNRETEGMKDGSDAIADWPILNALLNAVGGASWVSVHHGGGVGMGYSIHAGMVIVADGTKEAEKRLERVLTTDPGLGVIRHADAGYELAIRTAKEKGIDMPMLK	soluble
MSLVEKQSALESKARSWLIERGVEIDDIAELVLFLQQKYHPGLELDICRQNVEHVLRKREVQNAVLTGIQLDVMAEKGELVQPLQNIISADEGLYGVDEILALSIVNVYGSIGFTNYGYIDKVKPGILAKLNEHDGIAVHTFLDDIVGAIAAAAASRLAHSYHDDIVNEGGSHHHHHH	soluble
MQMYLADCIFPDIEGQLAAYKSFCELWDSGEMAKLDNFDGFQMLFRVHAPGAGRVTILFKAESDAQIFEAFAPWRAQFGIEMDFTPVIGCQDVVDYHKKLFAKMS	not soluble
MKDDPKVHLEAKELWDQFHKRGTEMVITKSGRRMFPPFKVRCSGLDKKAKYILLMDIIAADDCRYKFHNSRWMVAGKADPEMPKRMYIHPDSPATGEQWMSKVVTFHKLKLTNNISDKHGFTILNSMHKYQPRFHIVRANDILKLPYSTFRTYLFPETEFIAVTAYQNDKITQLKIDNNPFAKGFRDTGNGRR	soluble
MSHLNYETRLPLGQATIDHFMGLPAHPTKCQATYVWIDGTGEHLRAKTRTINTKPQYLSEYPIWNYDGSSTGQADGLNSDRYLRPVAVFPDPFLGGLNVLVMCDTLDHEMKPTATNHRQMCAELMKKVSDQQPWFGMEQEYLIVDRDEHPLGWPKHGYPAPQGKYYCGIGADRAFGREVVETHYRACLHAGITIFGSNAEVTPGQWEFQIGTCLGIEMGDQLWMARYILHRVAEQFGVCVSLDPKPRVTMGDWNGAGCHTNFSTIDMRRPDGLETIIAAMEGLKKTHSEAMKVYDPNGGHDNLRRLTGRHETSQADQFSWGIANRACSVRIPRQVADEGRGYLEDRRPSSNCDPYLVTAMIVKSVLIN	not soluble
